Experimental data published in US20240141071A1 (LAVA THERAPEUTICS N V, published 2024).
Values belong to the binder of their own block, whether it stands above or below them.

Columns and labels:
[1] = target: T1, Recombinant, purified CD123 antigen (extra-cellular domain; Sino Biological) (human, UniProt P26951 19-305); assay: phage ELISA on recombinant captured CD123 antigen
T1 construct: Bought; also called recombinant human CD123
T1 sequence: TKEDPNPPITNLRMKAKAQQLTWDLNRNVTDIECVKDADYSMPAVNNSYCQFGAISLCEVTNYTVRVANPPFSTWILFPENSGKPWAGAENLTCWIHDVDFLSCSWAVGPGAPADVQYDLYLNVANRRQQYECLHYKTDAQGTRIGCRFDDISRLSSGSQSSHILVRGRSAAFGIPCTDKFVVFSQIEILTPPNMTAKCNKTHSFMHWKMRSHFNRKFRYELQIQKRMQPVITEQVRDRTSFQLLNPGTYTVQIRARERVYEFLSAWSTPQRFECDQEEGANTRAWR

[2] = target: T2, human CD123 expressed on cells (human, UniProt P26951 19-378); assay: flow cytometry on CD123 expressing C1R-CD1d cells (cell line used for immunization)
T2 construct: also called interleukin-3 receptor alpha chain

[3] = target: T3, human CD131 (common β chain of the IL3 receptor) expressed on 293F cells (human, UniProt P32927 17-897); assay: flow cytometry on 293F cells transiently expressing CD131, AF647-labeled anti-VHH detection
T3 sequence: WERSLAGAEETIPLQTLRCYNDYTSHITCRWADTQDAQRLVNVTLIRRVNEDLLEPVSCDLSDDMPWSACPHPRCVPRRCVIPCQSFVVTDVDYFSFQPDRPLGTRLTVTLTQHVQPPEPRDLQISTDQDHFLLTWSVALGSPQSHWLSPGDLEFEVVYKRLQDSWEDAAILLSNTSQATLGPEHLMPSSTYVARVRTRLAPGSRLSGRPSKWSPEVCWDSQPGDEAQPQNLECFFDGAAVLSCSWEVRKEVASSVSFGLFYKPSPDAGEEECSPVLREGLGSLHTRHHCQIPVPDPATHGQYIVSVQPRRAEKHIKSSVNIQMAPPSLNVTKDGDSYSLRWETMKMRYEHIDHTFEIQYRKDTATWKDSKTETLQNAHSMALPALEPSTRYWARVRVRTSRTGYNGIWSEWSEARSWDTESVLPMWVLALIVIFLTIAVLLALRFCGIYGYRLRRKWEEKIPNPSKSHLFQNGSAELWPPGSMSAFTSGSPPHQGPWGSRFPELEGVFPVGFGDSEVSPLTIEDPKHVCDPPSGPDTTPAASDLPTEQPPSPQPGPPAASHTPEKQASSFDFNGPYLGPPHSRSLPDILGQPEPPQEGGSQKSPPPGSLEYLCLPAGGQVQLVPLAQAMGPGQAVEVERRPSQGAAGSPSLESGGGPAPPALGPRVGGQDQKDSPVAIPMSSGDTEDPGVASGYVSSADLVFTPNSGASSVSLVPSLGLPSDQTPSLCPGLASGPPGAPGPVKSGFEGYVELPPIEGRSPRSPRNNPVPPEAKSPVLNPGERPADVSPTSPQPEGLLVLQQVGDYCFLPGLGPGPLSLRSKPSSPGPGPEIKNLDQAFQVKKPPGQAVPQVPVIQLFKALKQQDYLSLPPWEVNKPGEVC
Description: Expression constructs for human CD123 and for the common β chain of the receptor (CD131) were purchased from Invivogen. Plasmids were transformed to chemically competent DH5α bacteria and a single colony growing on selective medium was used to inoculate a 50 ml culture to amplify both constructs. […] Either plasmid alone, or a mix of the two plasmids was used for transfection. As negative control, untransfected cells were also used for flow cytometry. A day after transfection, cells were used to test the binding of the bispecific VHH using staining in FACS. Briefly, binding of a saturating concentration of 100 nM bispecific VHH to transfected cells was detected with an AF647-labeled anti-VHH (Genscript) antibody and staining was visualized using a FACS Celesta (Becton and Dickinson).

BSA = target: T4, BSA (bovine, UniProt P02769); assay: ELISA, wells coated with 1% BSA (panel BSA), HRP anti-VHH detection
T4 construct: also called bovine serum albumin, negative control coating
T4 sequence (P02769 25-607 limits assumed): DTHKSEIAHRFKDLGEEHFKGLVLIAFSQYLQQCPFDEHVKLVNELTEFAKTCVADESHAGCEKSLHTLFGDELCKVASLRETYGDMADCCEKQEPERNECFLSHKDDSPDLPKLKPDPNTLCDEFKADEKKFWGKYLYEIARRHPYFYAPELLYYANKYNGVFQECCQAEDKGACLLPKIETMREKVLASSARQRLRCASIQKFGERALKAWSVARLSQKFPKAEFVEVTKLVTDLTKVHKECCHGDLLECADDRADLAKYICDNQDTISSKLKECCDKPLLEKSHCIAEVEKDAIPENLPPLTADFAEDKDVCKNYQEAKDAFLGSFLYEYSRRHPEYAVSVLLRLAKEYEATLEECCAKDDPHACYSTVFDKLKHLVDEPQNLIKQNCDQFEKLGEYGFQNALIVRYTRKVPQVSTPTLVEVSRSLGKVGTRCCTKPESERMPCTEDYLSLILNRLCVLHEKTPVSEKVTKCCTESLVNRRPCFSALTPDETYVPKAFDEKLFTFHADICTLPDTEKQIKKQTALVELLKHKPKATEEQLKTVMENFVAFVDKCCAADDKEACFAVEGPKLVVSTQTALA
From the text: FIG. 1: ELISA showing binding of all different bispecific VHHs to CD123, the Vγ9Vδ2 (GDT) TCR and BSA (as negative control). OD values are depicted; values are the mean of duplicate measurements; error bars indicate standard errors of the mean. A mono-valent anti-Vδ2 VHH was used as control for the TCR staining (“TCR control”) and a commercially available anti-CD123 antibody (“anti-CD123”) was used as control for the CD123 antigen coatings. “No AB” indicates a negative control without primary antibody.
Recombinant, purified CD123 antigen (extra-cellular domain; Sino Biological), or an Fc-fusion of the CD123 antigen (Bio-Techne/R&D Systems) was coated to the wells of an ELISA plate (Greiner) in PBS at a concentration of 2 μg/ml. As a negative control, wells were coated with 1% (w/v) BSA. An in-house designed, produced and purified recombinant form of the extra-cellular domains of the human Vγ9 and Vδ2 TCR chains fused to a human Fc was also coated as antigen at 2 μg/ml. After coating and blocking of the wells with 2% (w/v) BSA, bispecific VHH proteins were tested for binding at a saturating concentration of 50 nM and bound VHH was detected using an HRP-labeled anti-VHH antibody (Genscript) and staining using 3,3′,5,5′-tetramethylbenzidine (TMB)/H2O2.

[4] = target: T2, human CD123 expressed on cells; assay: cell-based or functional assay
[5] = target: T5, recombinant purified CD123-Fc fusion protein (Bio-Techne/R&D Systems) (human, UniProt P26951 19-305); assay: BLI, CD123-Fc on anti-human IgG Fc capture sensors; *low binding (>20 nM), one measurement only
T5 construct: Bought; also called Fc-fusion of the CD123 antigen; recombinant CD123
T5 sequence: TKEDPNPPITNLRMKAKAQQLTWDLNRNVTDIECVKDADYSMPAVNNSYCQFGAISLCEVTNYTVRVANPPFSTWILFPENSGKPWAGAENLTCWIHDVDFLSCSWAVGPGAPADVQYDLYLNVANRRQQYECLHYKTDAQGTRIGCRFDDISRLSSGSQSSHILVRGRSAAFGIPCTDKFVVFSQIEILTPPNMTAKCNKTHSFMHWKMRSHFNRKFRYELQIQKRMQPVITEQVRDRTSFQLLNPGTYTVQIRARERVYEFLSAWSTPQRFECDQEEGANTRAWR
Description: (§1) To determine the kinetics of binding of humanized 1D2-5C8var1 variants to CD123, recombinant purified CD123-Fc fusion protein (Bio-Techne/R&D Systems) was loaded to a density of 1 nm onto anti-human IgG Fc Capture sensors (using a concentration of 5 μg/ml) for an Octet Red96e (Sartorius) instrument. Different sensors were then dipped in different concentrations of humanized 1D2-5C8var1 variants, starting at 50 nM and two-fold dilutions thereof; dilutions were made in 10× kinetic buffer (10×KB) provided by the supplier. From the obtained sensorgrams, the kinetic association- and dissociation rate constants were determined by curve fitting. The association- and dissociation rate constants, when fitting was possible, were used to calculate the affinity of the humanized 1D2-5C8var1 variants for binding to CD123. […] For reference, the non-humanized (parental) 1D2 was included in these experiments.

[6] = target: T5, recombinant purified CD123-Fc fusion …; assay: BLI, CD123-Fc on anti-human IgG Fc capture sensors; SD 7.5
Description: as §1

B1: anti-CD123 VHH 1A3 (VHH)
VHH: EVQLVESGGGLVQAGGSLRLSCAASGRAINTYAMAWFRQAPGKERDFVATISYSGGTTDYAGSVKGRFTISRDNAENTVYLQMNSLKPEDTAVYYCAARDRYNPLARNYNYWGQGTQVTVSS
- binding result [1]: binds
- binding result [2]: binds

B2: 1A3-5C8var1 bispecific VHH (bispecific antibody)
chain: EVQLVESGGGLVQAGGSLRLSCAASGRAINTYAMAWFRQAPGKERDFVATISYSGGTTDYAGSVKGRFTISRDNAENTVYLQMNSLKPEDTAVYYCAARDRYNPLARNYNYWGQGTQVTVSSGGGGSEVQLLESGGGSVQPGGSLRLSCAASGRPFSNYAMSWFRQAPGKEREFVSAISWSGGSTSYADSVKGRFTISRDNSKNTLYLQMNSLRAEDTAVYYCAAQFSGADYGFGRLGIRGYEYDYWGQGTQVTVSSAAAEPEA
notes: Same format as 1D2-5C8var1
- binding result [3]: no binding (tested: 100 nM (single concentration))
- binding result (BSA): no binding (tested: 50 nM (single concentration))
- EC50 of THP-1 target cell lysis by Vγ9Vδ2 T cells [4]: ~0.05 nM

B3: 1D2-5C8var1(Y105F)-Fc (bispecific antibody, human IgG1, V domains shown)
V domain 1: EVQLVESGGGLVQAGGSLRLSCAASGRTASSYVMGWFRQAPGKEREFVAVINWNGDSTYYTDSVKGRFAISRDNAKNTVYLQMNSLKPEDTAVYYCAADTRREWYRDGYWGPPARYEYDYRGQGTQVTVSS
V domain 2: EVQLLESGGGSVQPGGSLRLSCAASGRPFSNYAMSWFRQAPGKEREFVSAISWSGGSTSYADSVKGRFTISRDNSKNTLYLQMNSLRAEDTAVYYCAAQFSGADFGFGRLGIRGYEYDYWGQGTQVTVSS
- EC50 of THP-1 lysis, donor nr. 2 [4]: 0.001 nM
- EC50 of THP-1 target cell lysis by Vγ9Vδ2 T cells, 24 h [4]: 0.001 to 0.003 nM
- EC50 of THP-1 target cell lysis in THP-1/pDC/Vγ9Vδ2 T cell co-culture [4]: ~1 pM
- EC50 of pDC lysis relative to THP-1 cell lysis [4]: ~10 fold
- EC50 of pDC lysis, donor nr. 2 [4]: 11 pM

B7: humanized 1D2-5C8var1 variant with 1D2 var10 (SEQ ID NO:34) (bispecific antibody)
chain: EVQLVESGGGLVQPGGSLRLSCAASGRTASSYVMGWFRQAPGKEREFVSVINWNGDSTYYADSVKGRFTISRDNSKNTLYLQMNSLRAEDTAVYYCAADTRREWYRDGFWGPPARYEYDYRGQGTQVTVSSGGGGSEVQLLESGGGSVQPGGSLRLSCAASGRPFSNYAMSWFRQAPGKEREFVSAISWSGGSTSYADSVKGRFTISRDNSKNTLYLQMNSLRAEDTAVYYCAAQFSGADYGFGRLGIRGYEYDYWGQGTQVTVSSAAAEPEA
notes: See note of m19
- Kd [6]: 10.4 nM

B9: humanized 1D2-5C8var1 variant with 1D2 var4 (SEQ ID NO:28) (bispecific antibody)
chain: EVQLVESGGGVVQPGGSLRLSCAASGRTASSYVMSWFRQAPGKEREWVAVINWNGDSTYYADSVKGRFTISRDNSKNTLYLQMNSLRAEDTAVYYCAADTRREWYRDGYWGPPARYEYDYRGQGTTVTVSSGGGGSEVQLLESGGGSVQPGGSLRLSCAASGRPFSNYAMSWFRQAPGKEREFVSAISWSGGSTSYADSVKGRFTISRDNSKNTLYLQMNSLRAEDTAVYYCAAQFSGADYGFGRLGIRGYEYDYWGQGTQVTVSSAAAEPEA
notes: See note of m19
- Kd [6]: 20 nM

Now from value to binder:

- binding result [1]: binds
- binding result [2]: binds
B4: anti-CD123 VHH 1D2 (VHH)
VHH: EVQLVESGGGLVQAGGSLRLSCAASGRTASSYVMGWFRQAPGKEREFVAVINWNGDSTYYTDSVKGRFAISRDNAKNTVYLQMNSLKPEDTAVYYCAADTRREWYRDGYWGPPARYEYDYRGQGTQVTVSS
notes: also called 1D2 VHH; lead anti-CD123 antibody

- Kd [5]: 24.5 nM
B5: humanized 1D2-5C8var1 variant with 1D2 var2 (SEQ ID NO:26) (bispecific antibody)
chain: EVQLVESGGGLVQPGGSLRLSCAASGRTASSYVMGWVRQAPGKEREWVSVINWNGDSTYYADSVKGRFTISRDNSKNTLYLQMNSLRAEDTAVYYCAADTRREWYRDGYWGPPARYEYDYRGQGTLVTVSSGGGGSEVQLLESGGGSVQPGGSLRLSCAASGRPFSNYAMSWFRQAPGKEREFVSAISWSGGSTSYADSVKGRFTISRDNSKNTLYLQMNSLRAEDTAVYYCAAQFSGADYGFGRLGIRGYEYDYWGQGTQVTVSSAAAEPEA
notes: See note of m19

- Kd [5]: 29.1 nM
B6: humanized 1D2-5C8var1 variant with 1D2 var6 (SEQ ID NO:30) (bispecific antibody)
chain: EVQLVESGGGLVQPGGSLRLSCAASGRTASSYVMGWVRQAPGKGLEWVSVINWNGDSTYYADSVKGRFTISRDNSKNTLYLQMNSLRAEDTAVYYCAADTRREWYRDGYWGPPARYEYDYRGQGTLVTVSSGGGGSEVQLLESGGGSVQPGGSLRLSCAASGRPFSNYAMSWFRQAPGKEREFVSAISWSGGSTSYADSVKGRFTISRDNSKNTLYLQMNSLRAEDTAVYYCAAQFSGADYGFGRLGIRGYEYDYWGQGTQVTVSSAAAEPEA
notes: See note of m19

- Kd [5]: 44.1 nM
B8: humanized 1D2-5C8var1 variant with 1D2 var8 (SEQ ID NO:32) (bispecific antibody)
chain: EVQLVESGGGLVQPGGSLRLSCAASGRTASSYVMSWFRQAPGKGLEWVAVINWNGDSTYYADSVKGRFTISRDNSKNTVYLQMNSLRAEDTAVYYCAADTRREWYRDGYWGPPARYEYDYRGQGTLVTVSSGGGGSEVQLLESGGGSVQPGGSLRLSCAASGRPFSNYAMSWFRQAPGKEREFVSAISWSGGSTSYADSVKGRFTISRDNSKNTLYLQMNSLRAEDTAVYYCAAQFSGADYGFGRLGIRGYEYDYWGQGTQVTVSSAAAEPEA
notes: See note of m19
